As usually defined, the Kd is the equilibrium constant for the complex coming apart. The term EC50 denotes the concentration needed to bring the measured effect to its halfway point. Low values mean greater potency, high ones weaker potency.

Positions count from the first letter of the chain named.

Here are results for six molecules from patent US20260317430 (published 2026).

T1: mouse FGFR2b (mouse, UniProt P21803)
T1 chain: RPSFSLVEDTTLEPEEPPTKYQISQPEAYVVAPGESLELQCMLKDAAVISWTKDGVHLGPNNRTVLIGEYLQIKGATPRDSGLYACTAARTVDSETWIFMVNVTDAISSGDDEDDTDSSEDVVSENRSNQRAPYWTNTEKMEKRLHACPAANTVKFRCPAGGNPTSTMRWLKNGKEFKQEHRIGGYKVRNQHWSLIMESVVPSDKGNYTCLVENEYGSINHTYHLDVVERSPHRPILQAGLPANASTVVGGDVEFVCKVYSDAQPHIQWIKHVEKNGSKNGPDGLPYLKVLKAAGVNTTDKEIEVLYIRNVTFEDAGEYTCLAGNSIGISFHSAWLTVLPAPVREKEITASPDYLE

B1: 1A3 (antibody, V domains shown)
VH: QVQLQQPGAELVKPGASVKMSCKASGYTFASYNLHWVKQTPGQGLEWIGLIYPENGDTSYNQKFKGKATLTADKSSSTAYIQLSSLTSEDSAVYFCARGGFDYWGQGTTLTVSQ
VL: DIQMTQSPASLSASVGETVTITCGASENIYGALNWYQRKQGKSPQLLIYGATNLADGMSSRFSGSGSGRQYSLKISSLHPDDVATYYCQNVLSTPYTFGGGTKLEIK
B2: 3G10 (antibody, V domains shown)
VH: EVQLQQSGPELVKPGASVKMSCKASGYTFATYNMHWVKQTTGQGLEWIGAIYPDNGDTFYNRKFKDKATLTADKSSTTAYMQLSSLTSEDSAVYYCARGDFAYWGQGTLVTVSA
VL: B1 VL with I2V, Q3L, I106M
B3: 2B2 (antibody, V domains shown)
VH: B1 VH with V2L, P7S, G66D, S77T, T87A, Q114S
VL: DIVMTQSQKFMSTSVGDRVSVTCKASQNVGTNVAWYQQKPGQSPKALIYSASYRYSGVPDRFTGSGSGTDYTLTISSVQAEDLALYYCQQHYSTPYTFGGGTKLELK
B4: 1G6 (antibody, V domains shown)
VH: EIQLQQSGAELVKPGASVKMSCKASGYTFRYYNMHWVKRTPGQGLEWIGLIYPDNGDTSYNQKFKGKATLTADTSSSTAYMQLSSLTSEDSAVYYCARGGLDYWGQGTSLTVSS
VL: NIVMTQSHKFMSTSVGDRVSITCKASQDVNTDVAWYQQKPGQSPKLLIYSASYRYTGVPTRFTGSGSGTDFTFTISGVQAEDLADYYCQQHYNTPYTFGGGTKLELK
B5: 1C10 (antibody, V domains shown)
VH: B4 VH with E1Q, I2V
VL: DIVMTQSPASLSASVGETVTITCRASGNIHNYLAWYQQKQGKSPQLLVYNAKTLADGVPSRFSGSGSGTQYSLKINSLQPEDFGSYYCQHFWSTPYTFGGGTKLEMK
B6: 3E2 (antibody, V domains shown)
VH: B4 VH with R30S, Y31F
VL: B3 VL with D1N, S56T, Y71F, L73F, L85V, L106I

T2 sequence (P21802 22-377): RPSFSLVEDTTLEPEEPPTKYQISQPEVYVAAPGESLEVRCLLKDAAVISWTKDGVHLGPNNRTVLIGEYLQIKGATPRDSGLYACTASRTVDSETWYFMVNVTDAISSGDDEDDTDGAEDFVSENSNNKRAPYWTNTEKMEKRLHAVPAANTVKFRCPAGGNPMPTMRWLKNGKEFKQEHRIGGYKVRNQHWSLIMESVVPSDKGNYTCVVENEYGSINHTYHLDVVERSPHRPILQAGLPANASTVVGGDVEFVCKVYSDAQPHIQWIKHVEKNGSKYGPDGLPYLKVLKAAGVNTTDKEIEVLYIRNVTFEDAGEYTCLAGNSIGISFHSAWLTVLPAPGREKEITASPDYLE

For one assay, the target named is T1, mouse FGFR2b. Description: BLI.
B1 yielded a Kd of 99.8 nM.

As for B2, the Kd was 41.9 nM. Compared with the last molecule, the Kd is about 2.4-fold lower.

In turn, B3 yielded a Kd of 53.5 nM.

The molecule B4 came in with a dissociation constant (Kd) of 42.2 nM.

B5 returned a Kd of 75.6 nM.

Turning to B6, binding was put at a Kd of 36.5 nM.

A further assay concerns the target T2, human FGFR2b extracellular domain (human, UniProt P21802). Description: ELISA. In general terms: In an ELISA, binding on a coated surface is turned into a signal by an enzyme label.
Molecule B1 returned an EC50 of 0.00818 µg/mL.

B2 displayed an EC50 of 0.0276 µg/mL.

B3 registered an EC50 of 0.0216 µg/mL.

The molecule B4 yielded an EC50 of 0.0235 µg/mL.

In turn, B5 showed an EC50 of 0.0159 µg/mL.

For B6, the EC50 was determined as 0.0235 µg/mL. This EC50 and that of the molecule before are within 1.5-fold of each other.

The target of another assay is T2, human FGFR2b extracellular domain. Description: BLI. A general note: BLI is a label-free optical method that tracks binding on a fibre tip over time.
On to B1, for which binding was characterised by a dissociation constant (Kd) of 12.2 nM.

B2 returned a Kd of 6.25 nM. This Kd is about 2-fold lower than that of the molecule before.

B3: binding was characterised by a dissociation constant (Kd) of 6.18 nM. This Kd and that of the molecule before are within 1.5-fold of each other.

As to B4, the equilibrium dissociation constant (Kd) came out at 3.97 nM.

Molecule B5 came in with a Kd of 11.1 nM.

As to B6, the Kd was found to be 4.45 nM.

In a further assay the target is human FGFR2b on KATO III cells (human, UniProt P21802). Put plainly: FACS. On the technique in general: In flow cytometry, cells or beads pass a laser one at a time.
Chain of human FGFR2b on KATO III cells (P21802 22-377): as above
Molecule B1 returned a 50% effective concentration (EC50) of 0.0656 µg/mL.

B2 displayed an EC50 of 0.149 µg/mL.

B3 displayed an EC50 of 0.233 µg/mL.

B4 displayed a concentration giving a half-maximal response (EC50) of 0.186 µg/mL. This EC50 and that of the molecule before are within 1.5-fold of each other.

B5 registered an EC50 of 0.152 µg/mL.

Turning to B6, the EC50 stood at 0.236 µg/mL.
